Measured values as given in PMC3428507 (Journal of molecular biology, 2012).
Like-named read-outs stand apart in the source and are kept apart here.

B1: MRG domain of MRG15 (residues 155–323) (domain or fragment)
chain: not shown
B2: Pf1 PHD1/MBD (residues 48–241) (domain or fragment, human, UniProt Q96QT6 48-241, looked up)
chain: RRSGRATNHDSCDSCKEGGDLLCCDHCPAAFHLQCCNPPLSEEMLPPGEWMCHRCTVRRKKREQKKELGHVNGLVDKSGKRTTSPSSDTDLLDRSASKTELKAIAHARILERRASRPGTPTSSASTETPTSEQNDVDEDIIDVDEEPVAAEPDYVQPQLRRPFELLIAAAMERNPTQFQLPNELTCTTALPGSS

Assays:
Test in all cases: NMR titration
[1] = molecular target: T1, full-length MRG15 (residues 1–323) (human, UniProt Q9UBU8-2 1-323)
[2] = molecular target: B2
[3] = molecular target: T1, full-length MRG15 (residues 1–323); remark: listed apart in the source

Binder: DYVQPQLRRPFELLIAAAMERNPTQFQLPNELTCTTALPGSS (domain or fragment, human, UniProt Q96QT6 200-241, looked up) [MRG-binding domain of Pf1 (residues 200–241)]
- binding result [1]: binds

Binder: B1
- binding result [2]: binds

Binder: B2
- binding result [3]: binds
